Experiments:
[1] = target: Aβ1-42 peptide fraction enriched in oligomers (high molecular weight fraction from SEC); test: ELISA on coated fraction; antibody dilution 1:8 (starting dilution 0.5 µg/ml); mean of 3 assays
[2] = target: Aβ1-42 peptide fraction consisting primarily of monomers (LMW monomer fraction from SEC); test: ELISA on coated fraction; antibody dilution 1:32 (starting dilution 0.5 µg/ml); assay 1
[3] = target: Aβ1-42 peptide fraction enriched in oligomers (high molecular weight fraction from SEC); test: as above
[4] = target: Aβ1-42 peptide fraction consisting primarily of monomers (LMW monomer fraction from SEC); test: ELISA on coated fraction; antibody dilution 1:128 (starting dilution 0.5 µg/ml); assay 2
[5] = target: Aβ1-42 peptide fraction enriched in oligomers (high molecular weight fraction from SEC); test: as above
[6] = target: Aβ1-42 peptide fraction consisting primarily of monomers (LMW monomer fraction from SEC); test: ELISA on coated fraction; antibody dilution 1:64 (starting dilution 0.5 µg/ml); assay 1
[7] = target: Aβ1-42 peptide fraction enriched in oligomers (high molecular weight fraction from SEC); test: as above
[8] = target: Aβ1-42 peptide fraction consisting primarily of monomers (LMW monomer fraction from SEC); test: ELISA on coated fraction; antibody dilution 1:8 (starting dilution 0.5 µg/ml); assay 1
[9] = target: Aβ1-42 peptide fraction enriched in oligomers (high molecular weight fraction from SEC); test: as above
[10] = target: Aβ1-42 peptide fraction consisting primarily of monomers (LMW monomer fraction from SEC); test: ELISA on coated fraction; antibody dilution 1:64 (starting dilution 0.5 µg/ml); assay 3
[11] = target: Aβ1-42 peptide fraction enriched in oligomers (high molecular weight fraction from SEC); test: as above
[12] = target: Aβ1-42 peptide fraction consisting primarily of monomers (LMW monomer fraction from SEC); test: ELISA on coated fraction; antibody dilution 1:32 (starting dilution 0.5 µg/ml); assay 3
[13] = target: Aβ1-42 peptide fraction enriched in oligomers (high molecular weight fraction from SEC); test: as above
[14] = target: Aβ1-42 peptide fraction consisting primarily of monomers (LMW monomer fraction from SEC); test: ELISA on coated fraction; antibody dilution 1:16 (starting dilution 0.5 µg/ml); assay 1
[15] = target: Aβ1-42 peptide fraction enriched in oligomers (high molecular weight fraction from SEC); test: as above
[16] = target: Aβ1-42 peptide fraction consisting primarily of monomers (LMW monomer fraction from SEC); test: ELISA on coated fraction; antibody dilution 1:2 (starting dilution 0.5 µg/ml); assay 1
[17] = target: Aβ1-42 peptide fraction enriched in oligomers (high molecular weight fraction from SEC); test: as above
[18] = target: Aβ1-42 peptide fraction consisting primarily of monomers (LMW monomer fraction from SEC); test: ELISA on coated fraction; antibody dilution 1:4 (starting dilution 0.5 µg/ml); mean of 3 assays
[19] = target: Aβ1-42 peptide fraction enriched in oligomers (high molecular weight fraction from SEC); test: as above
[20] = target: Aβ1-42 peptide fraction consisting primarily of monomers (LMW monomer fraction from SEC); test: ELISA on coated fraction; antibody dilution 1:1 (starting dilution 0.5 µg/ml); mean of 3 assays
[21] = target: Aβ1-42 peptide fraction enriched in oligomers (high molecular weight fraction from SEC); test: as above
[22] = target: Aβ1-42 peptide fraction consisting primarily of monomers (LMW monomer fraction from SEC); test: ELISA on coated fraction; antibody dilution 1:32 (starting dilution 0.5 µg/ml); mean of 3 assays
[23] = target: Aβ1-42 peptide fraction enriched in oligomers (high molecular weight fraction from SEC); test: as above
[24] = target: Aβ1-42 peptide fraction consisting primarily of monomers (LMW monomer fraction from SEC); test: ELISA on coated fraction; antibody dilution 1:128 (starting dilution 0.5 µg/ml); mean of 3 assays
[25] = target: Aβ1-42 peptide fraction enriched in oligomers (high molecular weight fraction from SEC); test: as above
[26] = target: Aβ1-42 peptide fraction enriched in oligomers (high molecular weight fraction from SEC); test: ELISA on coated fraction; antibody dilution 1:8 (starting dilution 0.5 µg/ml); assay 2
[27] = target: Aβ1-42 peptide fraction consisting primarily of monomers (LMW monomer fraction from SEC); test: ELISA on coated fraction; antibody dilution 1:1 (starting dilution 0.5 µg/ml); assay 2
[28] = target: Aβ1-42 peptide fraction enriched in oligomers (high molecular weight fraction from SEC); test: as above
[29] = target: Aβ1-42 peptide fraction consisting primarily of monomers (LMW monomer fraction from SEC); test: ELISA on coated fraction; antibody dilution 1:16 (starting dilution 0.5 µg/ml); assay 3
[30] = target: Aβ1-42 peptide fraction enriched in oligomers (high molecular weight fraction from SEC); test: as above
[31] = target: Aβ1-42 peptide fraction consisting primarily of monomers (LMW monomer fraction from SEC); test: ELISA on coated fraction; antibody dilution 1:1 (starting dilution 0.5 µg/ml); assay 1
[32] = target: Aβ1-42 peptide fraction enriched in oligomers (high molecular weight fraction from SEC); test: as above
[33] = target: Aβ1-42 peptide fraction consisting primarily of monomers (LMW monomer fraction from SEC); test: ELISA on coated fraction; antibody dilution 1:2 (starting dilution 0.5 µg/ml); mean of 3 assays
[34] = target: Aβ1-42 peptide fraction enriched in oligomers (high molecular weight fraction from SEC); test: as above
[35] = target: Aβ1-42 peptide fraction consisting primarily of monomers (LMW monomer fraction from SEC); test: ELISA on coated fraction; antibody dilution 1:128 (starting dilution 0.5 µg/ml); assay 3
[36] = target: Aβ1-42 peptide fraction enriched in oligomers (high molecular weight fraction from SEC); test: as above
[37] = target: Aβ1-42 peptide fraction consisting primarily of monomers (LMW monomer fraction from SEC); test: ELISA on coated fraction; antibody dilution 1:2 (starting dilution 0.5 µg/ml); assay 3
[38] = target: Aβ1-42 peptide fraction enriched in oligomers (high molecular weight fraction from SEC); test: as above
[39] = target: Aβ1-42 peptide fraction consisting primarily of monomers (LMW monomer fraction from SEC); test: ELISA on coated fraction; antibody dilution 1:16 (starting dilution 0.5 µg/ml); mean of 3 assays
[40] = target: Aβ1-42 peptide fraction enriched in oligomers (high molecular weight fraction from SEC); test: as above
[41] = target: Aβ1-42 peptide fraction consisting primarily of monomers (LMW monomer fraction from SEC); test: ELISA on coated fraction; antibody dilution 1:64 (starting dilution 0.5 µg/ml); mean of 3 assays
[42] = target: Aβ1-42 peptide fraction enriched in oligomers (high molecular weight fraction from SEC); test: as above
[43] = target: Aβ1-42 peptide fraction consisting primarily of monomers (LMW monomer fraction from SEC); test: ELISA on coated fraction; antibody dilution 1:1 (starting dilution 0.5 µg/ml); assay 3
[44] = target: Aβ1-42 peptide fraction enriched in oligomers (high molecular weight fraction from SEC); test: as above
[45] = target: Aβ1-42 peptide fraction enriched in oligomers (high molecular weight fraction from SEC); test: ELISA on coated fraction; antibody dilution 1:4 (starting dilution 0.5 µg/ml); assay 1
[46] = target: Aβ1-42 peptide fraction consisting primarily of monomers (LMW monomer fraction from SEC); test: ELISA on coated fraction; antibody dilution 1:32 (starting dilution 0.5 µg/ml); assay 2
[47] = target: Aβ1-42 peptide fraction enriched in oligomers (high molecular weight fraction from SEC); test: as above
[48] = target: Aβ1-42 peptide fraction enriched in oligomers (high molecular weight fraction from SEC); test: ELISA on coated fraction; antibody dilution 1:8 (starting dilution 0.5 µg/ml); assay 3
[49] = target: Aβ1-42 peptide fraction consisting primarily of monomers (LMW monomer fraction from SEC); test: ELISA on coated fraction; antibody dilution 1:4 (starting dilution 0.5 µg/ml); assay 2
[50] = target: Aβ1-42 peptide fraction enriched in oligomers (high molecular weight fraction from SEC); test: as above
[51] = target: Aβ1-42 peptide fraction consisting primarily of monomers (LMW monomer fraction from SEC); test: ELISA on coated fraction; antibody dilution 1:4 (starting dilution 0.5 µg/ml); assay 3
[52] = target: Aβ1-42 peptide fraction enriched in oligomers (high molecular weight fraction from SEC); test: as above
[53] = target: Aβ1-42 peptide fraction consisting primarily of monomers (LMW monomer fraction from SEC); test: ELISA on coated fraction; antibody dilution 1:128 (starting dilution 0.5 µg/ml); assay 1
[54] = target: Aβ1-42 peptide fraction enriched in oligomers (high molecular weight fraction from SEC); test: as above
[55] = target: Aβ1-42 peptide fraction consisting primarily of monomers (LMW monomer fraction from SEC); test: ELISA on coated fraction; antibody dilution 1:64 (starting dilution 0.5 µg/ml); assay 2
[56] = target: Aβ1-42 peptide fraction enriched in oligomers (high molecular weight fraction from SEC); test: as above
[57] = target: Aβ1-42 peptide fraction consisting primarily of monomers (LMW monomer fraction from SEC); test: ELISA on coated fraction; antibody dilution 1:2 (starting dilution 0.5 µg/ml); assay 2
[58] = target: Aβ1-42 peptide fraction enriched in oligomers (high molecular weight fraction from SEC); test: as above
[59] = target: Aβ1-42 peptide fraction consisting primarily of monomers (LMW monomer fraction from SEC); test: ELISA on coated fraction; antibody dilution 1:16 (starting dilution 0.5 µg/ml); assay 2
[60] = target: Aβ1-42 peptide fraction enriched in oligomers (high molecular weight fraction from SEC); test: as above

control antibody 6E10
O.D. (mean) (O.D. at 405 nm) [1]: 2.98
O.D. (O.D. at 405 nm) [2]: 1.18
O.D. (O.D. at 405 nm) [3]: 1.27
O.D. (O.D. at 405 nm) [4]: 0.75
O.D. (O.D. at 405 nm) [5]: 0.61
O.D. (O.D. at 405 nm) [6]: 0.81
O.D. (O.D. at 405 nm) [7]: 0.93
O.D. (O.D. at 405 nm) [8]: 2.67
O.D. (O.D. at 405 nm) [9]: 2.73
O.D. (O.D. at 405 nm) [10]: 1.08
O.D. (O.D. at 405 nm) [11]: 0.95
O.D. (O.D. at 405 nm) [12]: 1.54
O.D. (O.D. at 405 nm) [13]: 1.4
O.D. (O.D. at 405 nm) [14]: 1.78
O.D. (O.D. at 405 nm) [15]: 1.78
O.D. (O.D. at 405 nm) [16]: 3.3
O.D. (O.D. at 405 nm) [17]: 3.39
O.D. (mean) (O.D. at 405 nm) [18]: 3.27
O.D. (mean) (O.D. at 405 nm) [19]: 3.37
O.D. (mean) (O.D. at 405 nm) [20]: 3.83
O.D. (mean) (O.D. at 405 nm) [21]: 3.64
O.D. (mean) (O.D. at 405 nm) [22]: 1.36
O.D. (mean) (O.D. at 405 nm) [23]: 1.32
O.D. (mean) (O.D. at 405 nm) [24]: 0.75
O.D. (mean) (O.D. at 405 nm) [25]: 0.63
O.D. (O.D. at 405 nm) [26]: 2.99
O.D. (O.D. at 405 nm) [27]: 3.77
O.D. (O.D. at 405 nm) [28]: 3.67
O.D. (O.D. at 405 nm) [29]: 2.23
O.D. (O.D. at 405 nm) [30]: 2.07
O.D. (O.D. at 405 nm) [31]: 3.67
O.D. (O.D. at 405 nm) [32]: 3.36
O.D. (mean) (O.D. at 405 nm) [33]: 3.59
O.D. (mean) (O.D. at 405 nm) [34]: 3.59
O.D. (O.D. at 405 nm) [35]: 0.86
O.D. (O.D. at 405 nm) [36]: 0.66
O.D. (O.D. at 405 nm) [37]: 4
O.D. (O.D. at 405 nm) [38]: 3.83
O.D. (mean) (O.D. at 405 nm) [39]: 1.98
O.D. (mean) (O.D. at 405 nm) [40]: 1.92
O.D. (mean) (O.D. at 405 nm) [41]: 0.94
O.D. (mean) (O.D. at 405 nm) [42]: 0.92
O.D. (O.D. at 405 nm) [43]: 4.04
O.D. (O.D. at 405 nm) [44]: 3.89
O.D. (O.D. at 405 nm) [45]: 3.1
O.D. (O.D. at 405 nm) [46]: 1.34
O.D. (O.D. at 405 nm) [47]: 1.3
O.D. (O.D. at 405 nm) [48]: 3.23
O.D. (O.D. at 405 nm) [49]: 3.29
O.D. (O.D. at 405 nm) [50]: 3.37
O.D. (O.D. at 405 nm) [51]: 3.52
O.D. (O.D. at 405 nm) [52]: 3.64
O.D. (O.D. at 405 nm) [53]: 0.64
O.D. (O.D. at 405 nm) [54]: 0.62
O.D. (O.D. at 405 nm) [55]: 0.94
O.D. (O.D. at 405 nm) [56]: 0.88
O.D. (O.D. at 405 nm) [57]: 3.48
O.D. (O.D. at 405 nm) [58]: 3.55
O.D. (O.D. at 405 nm) [59]: 1.94
O.D. (O.D. at 405 nm) [60]: 1.92
